Here are results for 30 sequences from the Immune Epitope Database (IEDB).

The target of test [1] is HLA-B*40:01. Briefly: IEDB peptide-MHC binding, purified MHC/competitive/radioactivity; filed as Kd, often an IC50 or EC50 that approximates it; ≥ and ≤ were set here for values at or beyond the usual limits of such assays.
Test [2] deals with HLA-B*15:01. In words: IEDB peptide-MHC binding, purified MHC/competitive/fluorescence; filed as Kd, often an IC50 or EC50 that approximates it; ≥ and ≤ were set here for values at or beyond the usual limits of such assays.
The target in test [3] is HLA-A*23:01. In words: IEDB peptide-MHC binding, purified MHC/competitive/radioactivity; filed as Kd, often an IC50 or EC50 that approximates it; ≥ and ≤ were set here for values at or beyond the usual limits of such assays.
Test [4] has as its target HLA-A*30:02. The test is described as above.
The target in test [5] is HLA-A*24:02. Described as above.
The target of test [6] is HLA-A*29:02. The test is described as above.
Test [7] concerns the target HLA-A*26:01. The test is described as above.
The target of test [8] is HLA-A*01:01. The description is as above.
Test [9] concerns the target HLA-B*15:17. In words: IEDB peptide-MHC binding, purified MHC/competitive/fluorescence; filed as Kd, often an IC50 or EC50 that approximates it; ≥ and ≤ were set here for values at or beyond the usual limits of such assays.
Test [10] addresses HLA-A*26:01. Briefly: IEDB peptide-MHC binding, purified MHC/direct/fluorescence; filed as Kd, often an IC50 or EC50 that approximates it; ≥ and ≤ were set here for values at or beyond the usual limits of such assays.
The target of test [11] is HLA-A*02:01. The description is as above.
Test [12] has as its target HLA-A*69:01. Described as above.
Test [13] has as its target HLA-B*40:01. Described as above.
Test [14] deals with HLA-B*07:02. The test is described as above.
For test [15], the target named is HLA-B*08:01. The description is as above.
Test [16] addresses HLA-A*03:01. The description is as above.
For test [17], the target named is HLA-B*27:05. Described as above.
Test [18] has as its target HLA-B*58:01. The description is as above.
Test [19] addresses HLA-A*11:01. Described as above.
In test [20] the target is HLA-A*31:01. The test is described as above.
Test [21] addresses HLA-B*15:01. The description is as above.
The target in test [22] is HLA-B*44:02. Described as above.
The target of test [23] is HLA-A*01:01. The description is as above.
Test [24] deals with HLA-A*24:03. Described as above. Conditions: source organism: Giardia lamblia ATCC 50803.
Test [25] concerns the target HLA-B*44:03. Briefly: IEDB peptide-MHC binding, purified MHC/competitive/radioactivity; filed as Kd, often an IC50 or EC50 that approximates it; ≥ and ≤ were set here for values at or beyond the usual limits of such assays. The following applies: source organism: Dengue virus 1 Brazil/97-11/1997.
The mark [26] stands for this setting: source organism: Dengue virus 1 Brazil/97-11/1997.
Setting [27] is: source organism: Mammarenavirus juninense.
Where [28] appears, read: source organism: Dengue virus 2 Jamaica/1409/1983.
The mark [29] stands for this setting: source organism: Corynebacterium glutamicum.
Where [30] appears, read: source organism: Corynebacterium efficiens.
Where [31] appears, read: source organism: SARS coronavirus Tor2.
Setting [32] is: source organism: Influenza A virus (A/egret/Hong Kong/757.3/2002(H5N1)).
The mark [33] stands for this setting: source organism: Giardia lamblia ATCC 50803.
The mark [34] stands for this setting: source organism: Comamonas sediminis.
Setting [35] is: source organism: Mammarenavirus whitewaterense.
Where [36] appears, read: source organism: Mammarenavirus lassaense.
The mark [37] stands for this setting: source organism: Lassa virus Josiah.

On to WEGGHDLTV, for which, in test [1] (source organism: Dengue virus 4 Philippines/H241/1956), the dissociation constant Kd came to 1.85 µM.
Consider VEEQDANFV, for which the Kd in [1] (setting [26]) worked out at 0.412 µM.
The sequence AEVRPVVSY gave a Kd in [2] (source organism: Bacillus anthracis str. A0488) of 0.0735 µM.
Consider TEHGTTATI, for which, in test [1] (source organism: Dengue virus 1 Nauru/West Pac/1974), the dissociation constant (Kd) came to 0.0571 µM.
Regarding SMRSVQRNTV, the Kd in test [3] (setting [27]) is ≥ 70 µM; in test [4] (setting [27]) it was 7.86 µM; in test [5] (setting [27]), ≥ 70.3 µM; in [6] (setting [27]), ≥ 71.4 µM; in [7] (setting [27]), ≥ 69.7 µM; in [8] (setting [27]), 2.99 µM.
Regarding TEWCCRSCTL, the Kd in [1] (setting [28]) stood at 0.00995 µM.
On to ITWETPMIW, for which the dissociation constant Kd in [9] (setting [29]) is ≤ 0.001 µM; in test [10] (setting [30]), ≥ 20 µM; in test [11] (setting [30]), ≥ 20 µM; in test [12] (setting [29]), 0.507 µM; in test [13] (setting [30]) it was ≥ 20 µM; in test [14] (setting [30]), ≥ 20 µM. Also, the Kd in [15] (setting [30]) was ≥ 20 µM; in [16] (setting [30]) it was ≥ 20 µM; in [17] (setting [30]) it was ≥ 20 µM; in test [18] (setting [29]), 0.00443 µM; in [19] (setting [30]), ≥ 20 µM; in test [20] (setting [30]), ≥ 20 µM. For the same sequence, in test [21] (setting [30]), the Kd is ≥ 20 µM.
IENTTANISL: the dissociation constant Kd in [1] (setting [26]) is 0.00315 µM.
For IGAGICASY, the Kd was ≥ 77.8 µM in [3] (setting [31]); 0.00118 µM in test [4] (setting [31]); ≥ 60 µM in [5] (setting [31]); 0.0199 µM in test [6] (setting [31]); 6.65 µM in [7] (setting [31]); ≥ 47.8 µM in test [8] (setting [31]).
Turning to HEGYEEFTM, the figures for the dissociation constant Kd in [13] (setting [32]) and in test [22] (setting [32]) were 0.0119 µM and ≥ 20 µM, respectively.
KEEESEGAI: the Kd in [1] (source organism: Dengue virus 3 Martinique/1243/1999) was 0.0464 µM.
RYYDGNIYDL: the Kd in test [3] (source organism: Variola virus) is 0.0135 µM; in test [4] (source organism: Variola virus) it was 0.0152 µM; in [5] (source organism: Variola virus), 0.0879 µM; in test [6] (source organism: Variola virus), ≥ 61.8 µM; in [7] (source organism: Variola virus), ≥ 69.7 µM; in test [8] (source organism: Variola virus), 2.61 µM.
Take PPQATAKYL: the dissociation constant Kd in test [10] (setting [33]), in test [11] (setting [33]), in [23] (setting [33]), in test [12] (setting [33]), in [13] (setting [33]) and in test [15] (setting [33]) was ≥ 20 µM throughout. Besides, the Kd in test [16] (setting [33]) is ≥ 20 µM; in test [17] (setting [33]) it was ≥ 20 µM; in test [24] it was 9.66 µM; in [18] (setting [33]), ≥ 20 µM; in [19] (setting [33]), ≥ 20 µM; in test [22] (setting [33]), ≥ 20 µM. Further, the Kd in test [20] (setting [33]) and in test [21] (setting [33]) was ≥ 20 µM throughout.
With TEIQMSSGNL, the Kd in [1] (setting [28]) stood at 0.00703 µM.
Sequence RKIKAITSF displayed a Kd in [2] (source organism: Bacillus cereus G9241) of 1.88 µM.
Take KTSVDCNMY: the Kd was ≥ 77.8 µM in test [3] (setting [31]); 0.00266 µM in test [4] (setting [31]); ≥ 77.6 µM in test [5] (setting [31]); 2.72 µM in test [6] (setting [31]); ≥ 81.5 µM in [7] (setting [31]); 0.0986 µM in test [8] (setting [31]).
Turning to KSLGIDQIW, the equilibrium dissociation constant (Kd) in test [9] (setting [34]) is 0.00135 µM; in [10] (setting [34]), ≥ 20 µM; in test [11] (setting [34]), ≥ 20 µM; in [23] (setting [34]), ≥ 20 µM; in [12] (setting [34]), ≥ 20 µM; in test [13] (setting [34]) it was ≥ 20 µM. The Kd was ≥ 20 µM in test [14] (setting [34]); ≥ 20 µM in test [15] (setting [34]); ≥ 20 µM in test [16] (setting [34]); ≥ 20 µM in test [17] (setting [34]); 0.00829 µM in test [18] (setting [34]); ≥ 20 µM in [19] (setting [34]). Further, the results for the Kd in [20] (setting [34]) and in test [21] (setting [34]) were 4.66 µM and 1.77 µM, respectively.
As to HEWCCRSCTL, in [1] (setting [26]), the Kd amounted to 0.00399 µM.
As for GEVDSFSLGI, the Kd was 0.0194 µM in test [25] and 0.0567 µM in [1] (setting [26]).
On to LTGHMLDMY, for which the Kd in [3] (setting [31]) is ≥ 77.8 µM; in [4] (setting [31]), 0.0728 µM; in [5] (setting [31]), ≥ 77.6 µM; in [6] (setting [31]), 0.0611 µM; in [7] (setting [31]) it was 10.5 µM; in test [8] (setting [31]), 0.000563 µM.
With FFASFYYIW, the Kd in test [3] (setting [31]) was 0.176 µM; in [4] (setting [31]) it was ≥ 67.1 µM; in test [5] (setting [31]), 0.0209 µM; in [6] (setting [31]), 0.0945 µM; in test [7] (setting [31]), ≥ 26.2 µM; in test [8] (setting [31]) it was ≥ 37.6 µM.
Take CSYKIGHHV: the Kd was 17.5 µM in test [3] (setting [35]); 0.0944 µM in test [4] (setting [35]); ≥ 29.2 µM in test [5] (setting [35]); ≥ 26.3 µM in test [6] (setting [35]); ≥ 64.5 µM in test [7] (setting [35]); 0.0591 µM in [8] (setting [35]).
YYPSARIVY: the Kd was ≥ 84.5 µM in test [3] (setting [31]); ≥ 78.9 µM in test [4] (setting [31]); ≥ 105 µM in test [5] (setting [31]); ≥ 88.2 µM in test [6] (setting [31]); 1.37 µM in test [7] (setting [31]); ≥ 45.5 µM in test [8] (setting [31]).
Turning to NAAISDYDYY, the dissociation constant (Kd) in [3] (setting [31]) is ≥ 70 µM; in test [4] (setting [31]), 0.274 µM; in [5] (setting [31]), ≥ 70.3 µM; in [6] (setting [31]), 0.688 µM; in test [7] (setting [31]), 1.64 µM; in [8] (setting [31]), 0.0124 µM.
On to HDLMMGYAWI, for which the Kd is 8.22 µM in test [3] (setting [36]); 19.2 µM in test [4] (setting [36]); ≥ 40.1 µM in test [5] (setting [36]); ≥ 63.9 µM in [6] (setting [36]); ≥ 69.7 µM in [7] (setting [36]); ≥ 51 µM in test [8] (setting [36]).
For the sequence SCDFNGGKI, the Kd in test [3] (setting [37]) was ≥ 77.7 µM; in test [4] (setting [37]), ≥ 76.9 µM; in test [5] (setting [37]) it was ≥ 77.5 µM; in [6] (setting [37]) it was ≥ 78.9 µM; in test [7] (setting [37]), ≥ 77.9 µM; in test [8] (setting [37]), ≥ 23.2 µM.
As to IEEGRTLRVL, the Kd in test [1] (setting [26]) worked out at 0.0718 µM.
On to GEEVQVLAL, for which the Kd in [1] (setting [28]) amounted to 0.00309 µM.
Take LFTKFFYLL: the Kd in test [3] (setting [31]) was 0.154 µM; in test [4] (setting [31]), ≥ 83.3 µM; in [5] (setting [31]), 0.11 µM; in test [6] (setting [31]) it was 6.96 µM; in test [7] (setting [31]), ≥ 38.1 µM; in test [8] (setting [31]), ≥ 78.1 µM.
Regarding KEFAAGRKSL, the dissociation constant Kd in test [1] (setting [28]) was determined as 0.00963 µM.

What is called Kd is the constant that tells how readily two partners part at equilibrium.
